Assay results published in patent US20180207202A1, “METHODS FOR MOBILIZING HEMATOPOIETIC STEM CELLS” (Ohio State Innovation Foundation, priority 2013, published 2018).
Where two headings read alike, the source gives them in different places.

B1: G-CSF: Granulocyte colony stimulating factor (Amgen), routinely used to mobilize PBSC (protein, UniProt P09919 31-207, looked up)
Granulocyte …: TPLGPASSLPQSFLLKCLEQVRKIQGDGAALQEKLVSECATYKLCHPEELVLLGHSLGIPWAPLSSCPSQALQLAGCLSQLHSGLFLYQGLLQALEGISPELGPTLDTLQLDVADFATTIWQQMEELGMAPALQPTQGAMPAFASAFQRRAGGVLVASHLQSFLEVSYRVLRHLAQP
B2: FLT3L: recombinant human FLT3L (Celldex Therapeutics or Miltenyi Biotec), stem cell-specific growth factor (protein, UniProt P49771 27-235, looked up)
Fms-related tyrosine kinase 3 …: TQDCSFQHSPISSDFAVKIRELSDYLLQDYPVTVASNLQDEELCGGLWRLVLAQRWMERLKTVAGSKMQGLLERVNTEIHFVTKCAFQPPPSCLRFVQTNISRLLQETSEQLVALKPWITRQNFSRCLELQCQPDSSTLPPPWSPRPLEATAPTAPQPPLLLLLLLPVGLLLLAAAWCLHWQRTRRRTPRPGEQVPPVPSPQDLLLVEH

What was measured:
[1] = system: HSCs (Lin-Sca-1+c-Kit+, LSK cells); assay: LSK cell mobilization into peripheral blood, flow cytometry (Example 6); type: in vivo, C57BL/6 mice
Experimental: (§1) C57BL/6 mice were injected intraperitoneally (i.p.) either (i) with recombinant human FLT3L (Celldex Therapeutics or Miltenyi Biotec) ([…]) for 10 consecutive days or (ii) with G-CSF (Amgen) ([…]) for 5 consecutive days. The capacity of human FLT3L to bind murine FLT3L receptors and Plerixafor to block murine Cxcr4 receptor was previously reported. (See, e.g., Lyman et al., 1994; Brawel et al., 1996; Gerlach et al., 2001; Broxmeyer et al., 2005). Twelve hours after the last dose of either FLT3L or G-CSF, the mice were injected i.p. with either PBS or Plerixafor (AMD3100, Sigma) (5 mg/kg). The mice were euthanized one hour later.
As described by Ferraro et al., 2011, peripheral blood was collected retro-orbitally while the mice were under deep anesthesia. Briefly, the mice were […] by an i.p. injection with 100 μL of a mixture of ketamine (54.3 mg/mL) and xylazine (9.1 mg/mL). Blood was collected from the retro-orbital venous plexus through a microcapillary heparinized tube. The mice were then euthanized while still deeply anesthetized. RBCs were depleted by RBC lysis buffer. The remaining cells were subjected to flow cytometric analysis or transplantation.
The mAbs reactive with murine cell antigens were purchased from BD Biosciences or eBioscience. Cell preparation and analysis were performed as described by Yu et al., 2010. […]

[2] = system: CD8+ T cells; assay: CD8+ T cells in mobilized peripheral blood, flow cytometry (Example 3); type: in vivo, mice (WT B6D2F1/J); conditions: group of three mice
Experimental: It is known that donor CD8^+ T cells are mainly responsible for GVHD in HSCT, and G-CSF is considered a toxic mobilizer as it also induces GVHD.
In FIG. 3, WT B6D2F1/J mice were treated with FLT3L or G-CSF for 10 or 5 days, respectively, followed by a one-hour Plerixafor treatment. PBS served as a control. Peripheral blood cells were assayed by flow cytometry to examine percentages of CD8^+ T cells ([…]) in total white blood cells. Data were summarized from a group of three mice.

[3] = system: mice syngeneically infused; conditions: cited from earlier work
[4] = system: peripheral blood stem cells; conditions: cited from earlier work
[5] = system: Lin-c-kit+Sca-1+ HSCs and Lin-c-kit+Sca-1- progenitor cells; assay: Mobilization of HSCs and committed progenitors into peripheral blood, flow cytometry (Example 1); type: in vivo, mice (WT B6D2F1/J)
Source text: Since HSCs are important for long-term reconstitution and progenitor cells are critical for short-term rapid reconstitution in transplantation, whether a combination of FLT3L and Plerixafor can mobilize both types of cells was investigated. In mice, Lin^−c-kit^+Sca-1^+ cells are enriched HSCs and Lin^−c-kit^+Sca-1^− cells are more committed progenitor cells. […] Furthermore, the mobilization effect of the FLT3L and Plerixafor combination was much stronger than the G-CSF and Plerixafor combination, the strongest mobilizer currently used clinically (5.9% vs. 2%, 10.3% vs. 1%, n=3, p<0.01, respectively). The flow results were validated by another method, stem cell colony formation assay.
In FIG. 1, WT B6D2F1/J mice were treated with FLT3L or G-CSF for 10 or 5 days, respectively, followed by a one-hour Plerixafor treatment. PBS served as a control. On the last day of the treatment, mice were sacrificed and peripheral blood cells were subjected to flow cytometry to determine percentages (among total WBC) of stem-cell enriched (Lin^−CD117^+Sca-1^+) (FIG. 1A) or more committed precursor cells ([…]) (FIG. 1B).

[6] = system: lethally irradiated C57BL/6 mice; assay: Syngeneic transplantation of mobilized grafts into lethally irradiated mice (Example 6); type: in vivo; conditions: 2×10^5 mobilized cells per recipient
Experimental: For syngeneic transplantation, C57BL/6 mice were subjected to 9 Gy of irradiation delivered in 2 fractions separated by 4 hours using RS 2000 X-Ray Q2 Irradiator (Rad Source Technologies, Suwanee GP). Four hours later, each mouse was transplanted via the tail vein with 2×10^5 mobilized RBC-depleted peripheral blood cells from C57BL/6 mice. […] The lethally irradiated mice were housed in a sterile environment and baytril antibiotic was provided in the drinking water to prevent infection-caused mortality. After transplantation, mice were monitored daily and the phenotypes of the mice were recorded.
(§2) Irradiated mice without any cell infusion (IR Ctl) served as a control group. A total of 2×10^5 (A) or 8×10^5 (B) peripheral blood cells were transplanted for each recipient. Each group contains 5 to 8 mice. A log-rank test was used to compare survival curves.

[7] = system: NK cells (NK1.1+CD3-); assay: NK cell expansion in peripheral blood and spleen, flow cytometry (Example 2); type: in vivo, mice (WT C57BL/6 or B6D2F1/J)
Source text: […] PBS; gated on total white blood cells).
In FIG. […] PBS served as a control. Peripheral blood cells were counted using trypan blue and assayed by flow cytometry to examine percentages of NK cells (NK1.1^+CD3^−).

[8] = system: lethally irradiated BALB/c mice; assay: Allogeneic transplantation of mobilized grafts into lethally irradiated mice (Example 6); type: in vivo, BALB/c mice (grafts from C57BL/6); conditions: 8×10^5 mobilized cells per recipient
Experimental: For allogeneic transplantation, each recipient BALB/c mouse was subjected to a lethal irradiation (delivered in 2 fractions separated by 4 hours using RS 2000 X-Ray Q2 Irradiator) and was then injected with 8×10^5 mobilized RBC depleted peripheral blood cells isolated from C57BL/6 mice. […] Considering the likely graft rejection and GVHD complication in the allogeneic model, a 4-fold higher number of cells (i.e., 8×10^5 donor cells isolated from C57BL/6 mice) were administered intravenously (i.v.) into each BALB/c recipient for allogeneic transplants. The lethally irradiated mice were housed in a sterile environment and baytril antibiotic was provided in the drinking water to prevent infection-caused mortality. After transplantation, mice were monitored daily and the phenotypes of the mice were recorded.
as §2
In FIG. 16, lethally irradiated BALB/c mice were transplanted with grafts from C57BL/6 mice that were mobilized by the indicated regimens. At four months post-transplantation, the surviving mice were sacrificed.

[9] = system: lethally irradiated syngeneic mouse model; assay: Survival of lethally irradiated syngeneic mice given mobilized peripheral blood cells (Example 5); type: in vivo, mice (C57BL/6); conditions: 0.2 million mobilized PB cells per lethally irradiated recipient
Experimental: Peripheral blood (PB) mobilized by FLT3L and Plerixafor prolongs mouse survival in a lethally irradiated syngeneic mouse model and a fully mismatched acute GVHD model. To test whether the mobilized stem cells and other immune cells can improve transplantation, mobilized cells were administered to lethally irradiated (IR) syngeneic mice at the dose of 0.2 million PB cells for each recipient mouse.

[10] = system: fully mismatched acute GVHD model; assay: Survival in fully mismatched acute GVHD model given mobilized peripheral blood cells (Example 5); type: in vivo, mice (C57BL/6 to BALB/c); conditions: 0.8 million mobilized cells per mouse
[11] = system: NK cells, Tregs, DCs, monocytes, neutrophils; assay: Immune cell subsets in mobilized peripheral blood, flow cytometry (Example 6); type: in vivo, C57BL/6 mice
Experimental: as §1
The mAbs reactive with murine cell antigens were purchased from BD Biosciences or eBioscience. Cell preparation and analysis were performed as described by Yu et al., 2010. The immune subsets were gated as CD3^−NK1.1^+ for natural killer (NK) cells, CD3^+CD25^+Foxp3^+ for regulatory T cells (Tregs), B220^−CD11c^+CD11b^− for conventional dendritic cells (cDCs), and CD11b^−CD11c^lowPDCA1^+SiglecH^+ for plasmacytoid DCs (pDCs).
In FIG. 12, the constitution of immune cell subsets in mobilized peripheral blood was determined by flow cytometric analysis with corresponding antibodies (B cell: CD3^−CD19^+, T cell: CD3^+NK1.1^−; NK cell: CD3^−NK1.1^+; Neutrophil: Gr1^highCD11b^+; Monocyte: Gr1^medCD11b^+; DC: CD11c^+). […]

Molecule | number of LSK cells in blood compared with PBS-treated mice [1] | proportion of CD8+ T cells in total white blood cells [2] | mice survived ([3]; 2.5×10^5 cells mobilized by G-CSF transplanted) | mice survived ([3]; syngeneically infused with 1×10^6 peripheral nucleated cells mobilized by G-CSF) | autologous transplant patients that respond poorly ([4]; G-CSF or G-CSF plus chemotherapy, varied depending on disease types and age) | normal donors that mobilize stem cells poorly ([4]; in response to G-CSF) | effect on progenitor cells and HSCs ([5]; FLT3L administration for 5 days) | Lin-c-kit+Sca-1+ HSC, percentage among total WBC ([5]; peripheral blood, FLT3L administration of 7 days and 10 days, printed as 0.13% vs. 1.8%, n=3, p<0.01) [%] | Lin-c-kit+Sca-1- progenitor cells, percentage among total WBC ([5]; peripheral blood, FLT3L administration of 7 days and 10 days, printed as 0.47% vs. 1.8%, n=3, p<0.01) [%] | mice alive four months after transplantation [6] | survival rate at day 21 [6] [%] | NK cells in peripheral blood and spleen ([7]; FLT3L alone for 14 days) | NK cell content compared with the combination of GCSF and Plerixafor ([7]; gated on total white blood cells) | mice surviving to 4 months post-transplantation [8] [%] | protection from death [9] | survival rate two months (day 60) after transplantation [10] [%] | NK (CD3-NK1.1+) cell percentages [11]
c1cc(CN2CCCNCCNCCCNCC2)ccc1CN1CCCNCCNCCCNCC1 [Plerixafor, reference compound] | moderate increase | moderately gave rise to a proportional increase | – | – | – | – | – | – | – | – | – | – | – | – | – | – | –
B1 | – | – | around 17% | about 90% | 10-30% | 5-10% | – | – | – | – | – | – | – | – | – | – | –
B2 | significantly more LSK cells | dramatically decreased | – | – | – | – | increased only Lin-c-kit+Sca-1-progenitor cells but not HSCs | 1.8 | 1.8 | approximately 70% | 100 | dramatically increased | much higher NK cell content | 66 | fully protect mice from death | 60 | significantly increased
